From paper PMC6224377 (Frontiers in Immunology, 2018)

B1: GK-5E1 (antibody, V domains shown)
VH: QVTLKESGGDVVQPGRSLRLSCAASGFTFRTYGMHWVRQAPGKGPEWVALIWYDGSKKYYADSVKGRFTISRDNSKNTLYLQMNSLRAEDTAVYYCVRVRFGELYFQHWGQGTLVTVSS
VL: not shown
B2: GK-5G12 (antibody, V domains shown)
VH: QITLKESGGGVVQPGRSLRLSCAASGFTFRTYGMHWVRQAPGKGLEWVALIWYDGSNKYYADSVKGRFTISRDNSKNTLYLQMNSLRAEDTAVYYCIRVKFGDLYFQHWGQGTLVTVSS
VL: EIVLTQSPSSLSASVGDRVTITCRASQGISNYLAWYQQKPGKVPKLLIYAASTLQSGVPSRFSGSGSGTDFTLTISSLQPEDVATYYCQKYNSAPYTFGQGTKLEIK
B3: GK-1E5 (antibody, V domains shown)
VH: EVQLVESGGGVVQPGRSLRLSCAASGFTFRSYGMHWVRQAPGKGLEWVAIIWYDGSKKYYTDSVQGRFTISRDNSKNTLYLQMNSLRAEDTAVYYCARPGIAMTGLDYWGQGTLVTVSS
VL: DIQLTQSPSTLSASVGDRVTITCRASQSISSWLAWYQQKPGKAPKLLIYKASSLESGVPSRFSGSGSGTEFTLTISSLQPDDFATYYCQQYNNYWTFGQGTKVEIK
B4: GK-2G8 (antibody, V domains shown)
VH: QVQLQESGGGVVQPGRSLRLSCAASGFTFRSYGMHWVRQAPGKGLEWVAIIWYDGSKKYYTDSVKGRFTISRDNSKNTLYLQMNSLRAEDTAVYYCARPGVAMTGLDLWGQGTLVTVSS
VL: EIVMTQSPSTLSASVGDRVTITCRASQSISSWLAWYQQKPGKAPKLLIYKASSLESGVPSRFSGSGSGTEFTLTISSLQPDDFATYYCQQYNNYWTFGQGTKVDIK
B5: MK-3B12 (antibody, V domains shown)
VH: EVQLVESGPGLLKPSETLSLTCAVSGYSISSGYYWGWIRQPPGKGLEWIGSIYQSGSTHYNPSLKSRVTISVDTSKNQFSLKLTSVTAADTAVYYCAREDRAGWYPFDCWGQGTLVTVSS
VL: DIVMTQSPSTLSASVGDRVTITCRASQSISSWLAWYQQKPGKAPKLLIYKASSLESGVPSRFSGSGSGTEFTLTISSLQPDDFATYYCQQYNNYWTFGQGTKVEIK
B6: GK-5A1 (antibody, V domains shown)
VH: QVQLVESGGGVVQPGRSLRLSCAASGFTFSSYGMYWVRQAPGKGLEWVAVIWNDGSNKYYADSVKGRFTISRDNSKNTLYLQMNSLRAEDTAVYYCAREGSGWYDYYYGMDVWGQGTTVTVSS
VL: EIVLTQSPSTLSASVGDRVTITCRASQSISSWLAWYQQKPGKAPKLLIYKASSLESGVPSRFSGSGSGTEFTLTISSLQPDDFATYYCQQYNSYWTFGQGTKVDIK
B7: GK-22G12 (antibody, V domains shown)
VH: EVQLVESGGGLVQSGGSLRLSCAASGFTFSSQRLSWVRQAPGKGLEWVANIKQDGSEKNYVDSVRGRFTISRDIAKNSLYLQMNSLRAEDTAVYYCARDGYRNGWHIPEDYWGQGTLVTVSS
VL: DIVMTQSPSSLSASVGDRVTITCRASQGISNYLAWYQQKPGKVPKLLIYAASTLQSGVPSRFSGSGSGTDFTLTISSLQPEDVSTYYCQKHNRAPWTFGQGTKLEIK
B8: MK-24C10 (antibody, V domains shown)
VH: QVQLVESGGGVVQPGRSLRLSCAASGFTFSSYGMHWVRQAPGKGLEWVAVIWFDGTNKHYADSVKGRFTISRDNSKNTLYLQMNSLRAEDTAVYYCARDKGEWFGELRYYYYGMDVWGQGTTVTVSS
VL: not shown
B9: MK-7C3 (antibody, V domains shown)
VH: EVQLLETGGGVVQPGRSLRLSCVASGFTFRSHGMHWVRQAPGKGLEWVALIWYDGSKKYYADSVKGRFTISRDNSKNTLYLQMNSLRAEDTAVYYCARVGAGLYLDYWGQGTLVTVSS
VL: AIRMTQSPSTLSASVGDRVTITCRASQTISNWLAWFQQKPGKAPKVLIYKASSLESGVPSRFSGSGSGTEFTLTISSLQPDDFASYYCQQYNSYSYTFGQGTRLEIK

The binders below were run against T1, hROR2-ECD-Twin-Strep (soluble human ROR2 extracellular domain fused to a Twin-Strep-tag) (Homo sapiens (Human)., UniProt Q01974) (assay: ELISA; MaxiSorp plates coated with 2 μg/ml antigen in 100 mM bicarbonate/carbonate buffer; purified monoclonal antibodies from 0.5-2 μg/ml in serial dilutions in PBS-T/1% BSA, 1 h at 37°C; detected with HRP-conjugated F(ab')2 anti-human Fcγ). Conditions: both partners purified.
T1 construct: signal peptide in the construct; extracellular domain of human receptor tyrosine kinase-like orphan receptor 2 (ROR2), NP_004551.2, amino acids 1-403; Gene synthesis (GenScript), vector pCB14b; also called hROR2-Twin-Strep; human ROR2-ECD-Twin-Strep; not shown: Twin-Strep-tag, C-terminal, kept
T1 sequence (Q01974 34-403): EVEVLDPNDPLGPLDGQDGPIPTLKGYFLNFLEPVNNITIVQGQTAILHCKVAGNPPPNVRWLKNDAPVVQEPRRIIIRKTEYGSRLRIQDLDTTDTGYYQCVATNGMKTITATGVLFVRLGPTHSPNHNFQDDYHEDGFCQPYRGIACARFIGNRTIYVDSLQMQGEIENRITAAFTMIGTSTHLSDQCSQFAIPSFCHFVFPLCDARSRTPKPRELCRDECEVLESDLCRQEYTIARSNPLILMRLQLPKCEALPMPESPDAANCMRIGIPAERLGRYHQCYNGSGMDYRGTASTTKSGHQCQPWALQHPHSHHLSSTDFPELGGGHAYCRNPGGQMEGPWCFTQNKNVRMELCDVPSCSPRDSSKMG

Binding result, binds:
B1
B2
B3
B4
B5
B6

The binders below were run against T1, hROR2-ECD-Twin-Strep (soluble human …) (assay: SPR; multi-cycle SPR, Biacore T200; antibodies captured on a CM5 Protein A chip or by Protein G immobilized on a CM5 chip (capture levels 148 to 845 RU); hROR2-ECD-Twin-Strep as analyte, 2-fold serial dilutions 40 nM to 2.5 nM in running buffer). Conditions: both partners purified.

Binding result, binds:
B7
B8
B9
